The target of assay [1] is GhV F I268F/Q287P ectodomain (Ghanaian virus). As to the kind of experiment: negative-stain EM.
The target in assay [2] is GhV F I268F/Q287P/S196C/A215C ectodomain (Ghanaian virus). As to the kind of experiment: negative-stain EM.

For orientation: stoichiometry N means a count of units in the complex or per binding partner.

In assay [1], “GhV F I268F/Q287P ectodomain (domain or fragment)” came in with a stoichiometry N of 3.
In turn, “GhV F I268F/Q287P/S196C/A215C ectodomain (domain or fragment)” had a stoichiometry N in assay [2] of 3.
